Some targets named below: HLA-A*11:01; HLA-A*68:01; HLA-A*03:01; HLA-A*31:01; HLA-A*33:01.
Assay in all cases: IEDB peptide-MHC binding, purified MHC/competitive/radioactivity; filed as Kd, often an IC50 or EC50 that approximates it; ≥ and ≤ were set here for values at or beyond the usual limits of such assays
The target in a further test is HLA-A*02:03. Particulars: source organism: Dengue virus 2 Jamaica/1409/1983.
The target in the next test is HLA-A*02:06. Particulars: source organism: Dengue virus 2 Jamaica/1409/1983.
[1] abbreviates: source organism: Mammarenavirus machupoense.
The mark [2] stands for this setting: source organism: Vaccinia virus WR.
[3] abbreviates: source organism: SARS coronavirus Tor2.
[4] abbreviates: source organism: Mammarenavirus guanaritoense.
Where [5] appears, read: source organism: Lymphocytic choriomeningitis virus (strain Armstrong).
[6] abbreviates: source organism: Vaccinia virus Copenhagen.

As for SSFDYCGTDH, the dissociation constant Kd (commonly the constant that tells how readily two partners part at equilibrium) with HLA-A*11:01 (setting [1]) is not below 69700 nM; in the test with HLA-A*68:01 (setting [1]), not below 41800 nM; in the test with HLA-A*03:01 (setting [1]), not below 70000 nM; with HLA-A*31:01 (setting [1]), not below 31800 nM; with HLA-A*33:01 (setting [1]), not below 42000 nM.
On to SSRVDRYSKK, for which the Kd was 332 nM with HLA-A*11:01 (setting [2]); 3040 nM in the test with HLA-A*68:01 (setting [2]); 285 nM with HLA-A*03:01 (setting [2]); 835 nM with HLA-A*31:01 (setting [2]); not below 29600 nM with HLA-A*33:01 (setting [2]).
As to SVKSFEIDK, the Kd turned out to be 137 nM with HLA-A*11:01 (setting [3]); 729 nM with HLA-A*68:01 (setting [3]); 1560 nM in the test with HLA-A*03:01 (setting [3]); 1110 nM with HLA-A*31:01 (setting [3]); 12200 nM with HLA-A*33:01 (setting [3]).
As for TAFQHQNSKK, the Kd was 139 nM in the test with HLA-A*11:01 (setting [3]); 16.1 nM with HLA-A*68:01 (setting [3]); 332 nM with HLA-A*03:01 (setting [3]); not below 54300 nM with HLA-A*31:01 (setting [3]); not below 70000 nM with HLA-A*33:01 (setting [3]).
Regarding TAVCMKCFK, the Kd in the test with HLA-A*11:01 (setting [2]) is 10.2 nM; with HLA-A*68:01 (setting [2]) it was 11.3 nM; in the test with HLA-A*03:01 (setting [2]), 211 nM; with HLA-A*31:01 (setting [2]) it was 448 nM; in the test with HLA-A*33:01 (setting [2]), 4460 nM.
The matching figures for TFIMLEGETK: 11.8 nM, 176 nM, 38.8 nM, 816 nM and 3420 nM.
As to TLDQLEDSEY, the Kd with HLA-A*11:01 (setting [2]) was 1710 nM; in the test with HLA-A*68:01 (setting [2]) it was 4070 nM; with HLA-A*03:01 (setting [2]) it was 8620 nM; with HLA-A*31:01 (setting [2]) it was 14400 nM; in the test with HLA-A*33:01 (setting [2]), not below 40300 nM.
For the sequence TLLATVTGGI, the Kd in the test with HLA-A*02:03 stood at 12.8 nM.
In the case of TMEIEDQEYH, the Kd is not below 69700 nM with HLA-A*11:01 (setting [4]); 8530 nM with HLA-A*68:01 (setting [4]); not below 70000 nM with HLA-A*03:01 (setting [4]); not below 70000 nM with HLA-A*31:01 (setting [4]); not below 70000 nM with HLA-A*33:01 (setting [4]).
Consider TQTAGPWHL, for which, in the test with HLA-A*02:06, the Kd worked out at 435 nM.
For VIEDITFLR, the Kd was 54.6 nM in the test with HLA-A*11:01 (setting [2]); 11.8 nM with HLA-A*68:01 (setting [2]); 1560 nM in the test with HLA-A*03:01 (setting [2]); 27.6 nM in the test with HLA-A*31:01 (setting [2]); 420 nM with HLA-A*33:01 (setting [2]).
The matching figures for VSIILANER: 47.2 nM, 8.48 nM, not below 78000 nM, 130 nM and 7690 nM.
VTFRERYSYK: the Kd with HLA-A*11:01 (setting [2]) came out at 3.19 nM; with HLA-A*68:01 (setting [2]), 2.83 nM; in the test with HLA-A*03:01 (setting [2]) it was 0.457 nM; with HLA-A*31:01 (setting [2]), 3360 nM; with HLA-A*33:01 (setting [2]), 2480 nM.
As for VTMFEALPH, the Kd with HLA-A*11:01 (setting [5]) is 15.6 nM; with HLA-A*68:01 (setting [5]), 18700 nM; with HLA-A*03:01 (setting [5]), 467 nM; in the test with HLA-A*31:01 (setting [5]), not below 77900 nM; in the test with HLA-A*33:01 (setting [5]) it was not below 77700 nM.
On to VVQRCASNK, for which the Kd in the test with HLA-A*11:01 (setting [3]) is 639 nM; with HLA-A*68:01 (setting [3]), not below 48300 nM; in the test with HLA-A*03:01 (setting [3]), 663 nM; with HLA-A*31:01 (setting [3]) it was 8260 nM; in the test with HLA-A*33:01 (setting [3]), not below 77700 nM.
VVSTGYHFR: the Kd amounted to 8.55 nM with HLA-A*11:01 (setting [3]); 7.34 nM with HLA-A*68:01 (setting [3]); 31.5 nM with HLA-A*03:01 (setting [3]); 1.69 nM in the test with HLA-A*31:01 (setting [3]); 41.2 nM with HLA-A*33:01 (setting [3]).
YANLDDVYSY: the Kd in the test with HLA-A*11:01 (setting [2]) is 38.2 nM; with HLA-A*68:01 (setting [2]), 1650 nM; with HLA-A*03:01 (setting [2]) it was not below 25700 nM; with HLA-A*31:01 (setting [2]) it was not below 33300 nM; with HLA-A*33:01 (setting [2]), 15600 nM.
For the sequence YLLVKWYKK, the Kd with HLA-A*11:01 (setting [6]) is 189 nM; with HLA-A*68:01 (setting [6]), not below 23400 nM; with HLA-A*03:01 (setting [6]) it was 113 nM; with HLA-A*31:01 (setting [6]), 12 nM; in the test with HLA-A*33:01 (setting [6]) it was 30.5 nM.
As for YLTMKAIEK, the equilibrium dissociation constant (Kd) in the test with HLA-A*11:01 (setting [2]) is 867 nM; with HLA-A*68:01 (setting [2]), 1010 nM; with HLA-A*03:01 (setting [2]) it was 384 nM; with HLA-A*31:01 (setting [2]), 11400 nM; in the test with HLA-A*33:01 (setting [2]) it was 9830 nM.
The matching figures for YSHLLPTQR: 1170 nM, 25.5 nM, 4030 nM, 23 nM and 892 nM.

The values above are taken from the Immune Epitope Database (IEDB).
